This passage reports Kd and 抗体滴度 (dilution factor (1:x) from 1 mg/mL) results from patent publication CN111620945A.

The target in assay [1] is T1, 重组SARS-CoV-2刺突蛋白胞外区 (extra cellular domain of spike protein, S-ECD) (SARS-CoV-2), P0DTC2. Kind of assay: SPR, Biacore 8K, S-ECD immobilised on a CM5 chip, antibody 125-7.8 nM. Conditions: remark: other sources report otherwise.
In assay [2] the target is T1, 重组SARS-CoV-2刺突蛋白胞外区 (extra cellular …). Kind of assay: indirect ELISA, S-ECD coated at 1 μg/ml, end-point titre. Conditions: remark: other sources report otherwise. On the technique in general: In an ELISA, binding on a coated surface is turned into a signal by an enzyme label.

B1: FC05 (antibody)
chain 1: EVQLLEQSGAEVKKPGASVRVSCKVSGYTLPEVAMHWVRQAPGKGLEWMGGFDPEDGETIYAQKFQGRVTMTEDTSTDTAYMELSSLRSEDTAVYYCATTTPFSSSFWFDPWGQGTLVTVSS
chain 2: QSVLTQAPSVSGAPGQKVTISCSGSSSNIGNNYVSWYQQLPGTAPKLLIYDNNKRPSGIPDRFSGSKSGTSATLGITGLQTGDEADYYCGTWDSSLSAVVFGGGTKLTVL
The term Kd denotes the equilibrium constant for the complex coming apart. In turn, B1 gave a Kd in assay [1] of 100 pM. The molecule also displayed a 抗体滴度 (dilution factor (1:x) from 1 mg/mL) in assay [2] of 320000.
